Measurements reported in the NTF2 design screens of Basanta et al. (2020).

Assay: protease stability score; higher = more stable; yeast display proteolysis, trypsin and chymotrypsin;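 further: relative to predicted unfolded state with 0 unfolded-like and 1 meaning tenfold more protease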

Sequence	protease stability score
DDMEKETRQFTKLWIEALETGDEDFIKHLVDPHAKITVNGVEYHGMESMKDELKKIKNVRMEIKDVRVFNGVSKIDMESHFDGRTHDTRIEIFVVDGRFKEVRLHIR	1.01
TEEEELAHHLVRLLIELWRTGDEEILRHLADPNVKLIYGDKTDHGREKSHRWMKELLDRYDHVEIIIRREEVQGEKAHSDVELVVNINGVREVYEVHLHFIVVNGKIREERIEVR	0.989
DEEEKHLKKLKDMEWKLFETGNEDEIAKLADPNTRTEIDFNGVRIILHGRHVFAKYLTRWWRSLGIDHIRLEEMDIQGDYVTIRGKEDYNGKEKRVTIIIVIVDGRLKEIHVDVR	0.967
DEWDEKLHHFFELMSHAMETGDEHMQDELADPHVRLIINGVDYIGRERFREMVKRVDYFSVRDIHFKDKEIQGDFIHFRGTLNGEEIINGVRIEKEVDFKLLILKVDGRWFLESEERR	0.668
DEEEENSRRAIEIVLQHMETGDEKTLEELVDPHVKLHYGDKTSHGRHHVAHLIMRLGVKHSRVEHVDSQGDKVFFFTRMRIGDKHFDTRVILLKVDGKWQIHELKFD	1.96
SDEERDSRKAEEKWIRTLETGDERIITELADPNVRLEIGDKTFHGREDFYKFMTYLTRHLRVERFEIKRFDFQGEWIHMKTHINMRVGEFSHHSDTEIVAYKVNGRWVIHNVRVE	0.831
DEDERLEEEALRLLRHSLHTGDERIITELADPHARLEFNGREFHGREDFLRFIVHMRVRHEEEKSVRLQGDKVDVNWHMVVLFDGQLRRQDVRLILWKFNGRWHIKSIRIE	1.5
SEDVERVRHSIIVWLHILLTGDEETISKYADPNARYVQGDKHHHGMEYIAIKIRELRWSVTMEIEHMHVVDGRAHIEGRLILRIHINGKEDVEDHELELHMIKVDGKWILHEIKIK	1.59
SEDEEIVRHFLEIWIKILKTGDWHSMERLVDPHAKYENEHEVDHGRDSARRFVDELRVTEFRVESVKTQGDKATVHTRMVVHFNGKRIDTETRLHIHKVDGRWVVEIIIVN	1.43
DEDEEEAKEFLRIYIEALRTGDEDLWKEMADPNMRLIVGDKERHGRESYTHWERELGYRLEHIHIDHVTFQGDKVDVETTLRIHINGQTHDVEIHLIVTKIDGRWHMKEIIIK	1.08
DEVEHHMKTITDRLLTAIETGDEDEWERLLDPRVRVDIGDKHIHGREDYNRKFRERGFEIKRWEMKDMDVINGQIRIDGHRKIHIDGVTTRNTVHIIIVVYNGRVKHFEHRHE	0.578
DDEEKHAHDILRLLFWVLMTGDEEIIRELFDPNVRVHIGDKEIHGWKELSRHTKEMRHHVRDTDEKDRRSDEDEIRLHGELDGELHFDGKRVKHRMDIHIIAVKIDGRWFFKSLYVR	0.868
SEEEEILDKLVKHFIHAFRTGDEDRLNELLDPDAKLVIEYGDKRLEHHGRENVLRAWVELIERIKGVRLEWKEIRPQGDFVESRTQLIVNGREVETEVEIIMFNGRFREFTVRIR	2.11
DEDHEISKRALEQWIHDLHTGDEDTLRKFADPNARMEVDGVEHHGMELAMRILLRIDVTEIRIKDMRIVDGRVEIDGEVRDKVNGKTRESRVHLYVLKVDGRWVMESITIQ	0.476
TEREEEVHHVQRLEWEALRTGNEEYLLRLIDPEVRIRQGDKTLIGREALNLHLKKVKNLQFRDIKLRDFDVQGEKIHLHTELIGEVDGRELKIDIDIHVKKINGRWVIDSFHIN	1.32
SEDEEQAEHFLRLLVEALVTGDEDKIMKLIDPNVRLEAEGHDHHGRELFVKFWMELRVKEVQIEDVKLWNGRVRFDVRFDGTFNGKRFESTSHIILTKINGKWVLKKVEMR	0.106
TEDEDRLTEMIEELLHALLTGDEKRKDELIDPHTKLDVNGRERHGMEEIKKNWRKLGVERIDLRVRERRIVNGVAHIRGDLHVGDKSMEVHIVFVKVDGRWIVHSFFIH	1.31
DSVEELAKRSVELLLRLLKTGDEEEISRLADPDTRLVIGEFEFHGMEKVEHSWRKMGFTIHEWRIHDVEVQGDKLIVHVHQNIEFNGVHEEFRSIIIARKINGRWRLKSLHWK	1.67
DEEKRDVDDAKEVWDRIFKTGDEHQLERNFDPNVRQHIDGREHVGREEFRKEFHKILLLLGVKHLRIEFHDEEYQGDKIILRGTLFFEVNGRIEIWIVTIIARKVNGQWLVHTVHHN	0.425
SEEEKWAELALEETLRHLKTGDPRVLLELADPNVKLDVNGREYHGREVFLNFIEEFREKFKNITIEVKDRDVVNGRLITHLRLIVNGKEERVHMRSHKVDGQWVLDSVKIE	1.9
DEEEKKWKDMVHLWFHWHVTGDFEALYENFDPNARLEQTIDGKRIEVHGREVVKEFFHRLMEELGVDHIRIERRQIQGEKVHIRGTSIFNGKERDVHIDLVVIDGRFRSARIIFN	1.39
SEEEELATEIFRKWIELLETGDEHTFRELADPDYRLIILYGDFIINDIGRERAIERWKQHLKQFDHWEIIIDRERVVNGVVHVDGILVLRINGREHNRRVKIELFIFDGRMKEVDIHID	2.6
SDEERSIKILIDLYRLAQETGDERIMREYADPDMKLDIGDKRDHGWEVLVRMVRHLRFHEIHIEHFEVQGNKMHITVRIDTEVNGQRWILRAHIIVTKFNGKWRIEHREEE	1.45
DEEEELLRRMLHLLYHFLKTGDEDTLSRLMDPNYLLIIGDKEHHGREEYRKVMKRADVLEIMHIHDVHFQGDKIHIDGHSRWRVGDKMHETRIEIIAVKFNGRWHFHSIIVR	0.804
SEEEHTSEEALRAFVFLELTGDEKSLIELLDPRTRIHAENHEVVGRERATEEWRRWLEFYKNIRVHDVEIEEIHLIDGRIKLIMRRDGVINGVKRETHIRMITNKVNGRWLVHSIIIR	1.37

Sequence	protease stability score
NEEEEDMEHATKEHMELWRTGDEKRITELADPNVRVHVGEKEYHGREKLSEHIMRLGFDHVELTHFDVQGEKVISHIRVRFNGRDIEFLLIVLKVDGRWYEEQVNIRVS	0.66
DELTDSREHALNLYIHKLETGDWNLHERFLDPNVRVDYDGVDLHGREIYRQWETERLEIAGIKHLELKRKSVQGEKIRIDGIEKFDGKEVKTHVIILKVNGKWILETVIFK	0.171
DEHTDYIREILRLLSEVVRTGDEDSLRRLLDPDARIVINGVDLIGMEHWFRLMFEIRHFAEDSKLEHSEVQGDKVIAHGRYHGEYEFDGRRRRHDTEVEMHVHKIDGRWYVRSLSIR	1.72
DHEEEIAQKAFTDWHHALLTGDWERHEEMFDPDVREDINGVDLHGRELIVKQVRRDLQDFGIKHFEIRIRRLSFQGNKVIFDGIIIFHVDGREERFHVRVLFRKINGVWYLHSRFLH	1.06
TEEEEIVTRALDKFREDLDTGDWKSIKHNFDPDVRLVFENHSTHGRELAVTIAEHIFKRFDYVHDSRNEHIKFQGDKVEWHSHYDGTINGRRMEVRILLIVRKYNGVWIIEEYLIV	1.47
DEDDRLAEDLLRLIYHALQTGDEKHLEDFMDPHTQIIIEWNGVRDDTHGREEFSRKFHEQVRELRVHFHQNSIHVINGRAHNDGRLELNINGKIIKLKVILEIQVINGRIKEIRIIVR	1.95
HEEDEMAIKIVELFIHALHTGNEELLHNLLDPEVRLTVDGRRIHGRHWVLRELLHIRVHDIHWTDIDKVNGKIELHTRQDGDVDGRRHEVNVTLVVIKVDGQWILHSVMVE	2.09
TEHDHDTERAFKEWFDVVRTGDFHRLERMLDPNVLSRIDGKLIHGRERLLKFWQEYLEHLGANHHEIHHVDIQGDKINIDIRVEYGDKRFTVHVHASKINGQWRVHENEKQ	1.02
SELEEFARKLMHIYSFAFLTGDWRLHEHMLDPHVRQEQGDKELHGMEDLERLMKRIDHVKHVEMLIEHLEVQGDKVRAHGKWRLIGTVNGQDVDVTIRAHFNIEKFDGVWVVREVRLL	2.58
DEDERNHEEIWELFLRVVMTGDWNLHKEMLDPHVRIDIDGVHIHGREEAVKHIRHLRVELNHFHIEDVKIVNGRARIQTHEEVTIRIDGVRIETRRSTELIMIKVDGRWLLHHEIVR	0.524
REDEEMIEHAVRREIHSYYTGDWEKHYKLLDPNALIHIDINGRQENIHGREEIMRFWYERFKDFGFDHMEIKRITLVDGKLHIFSIIDVNGVRIELEIIIVKVDGRWRLHTMRYHYH	0.652
SEDKKATNEASEIIIRLLKTGDEHLANHYIDPNVRMIFENRDVHGRETFEEWMRRVDHFHHYDVRHVHTQGDKINIDSEHNIHINGQEEIKDVYWISTKIDGKWILKSIEVR	1.28
DEEEHWLKHWTDLHLFARITGDEELLMKMLDPDVRFHIGDKESHGREEVARLLIELWIHNQHVRRRIIVNGVSHIHGELDGEINGVRHRTEIEIHILVIDGRIHEIIIKVH	1.24
SEDDDLAKDFVSLMLHEFRTGNEESMSKLVDPHVRLHIGDKTYVGRENVSRILKKELRDYGIDHMHIDHLRVQGDKVHIHTTYRQGDKEMETHFVILKVDGKWFMHEIEIR	1.88
DEHHERARKVAHLFMRIFETGDEDSMNELLDPNVRWVLIYGDKRFELHGWEELDKDIRRYDHHRLEMKHVEIQGNKADNDTRLRLRFDGKDIETETRLHIRVVDGVMKEVTFDIH	0.364
SEEEKSAKIAVDLLLKSQLTGDEQTISELLDPNVRLDVNGREYHGREEYKKWFKHMVERADHMEIRLRHVHFYDGQVHVIGILIIRVNGKELRWEQILVVDKIDGRWLLSEFNFH	2.63
DSHYHLFIYNMELLSTLLKTGDEHRNTEMFDPHVRIVVGEKEIHGREDVEKYLREIRIEEMRFHLRRLDVQGEKVTVEGELRIRFWIGDKEHEHNEDARIHLLKINGRWRLKEIESK	2.43
RELERDSTELIKMWLRHLETGDEDVISELIDPNVKVDINGQDHHGREDATEWAMRVKNMTIIVRHLEFQGEKAFVTTEVRVNGKTVHVIVRSLKVDGRWRLESLEVHSE	1.59
TEEDELRELAIRLLEESLRTGNEQDLRELFDPNTRIVIGNKDFHGMEHWVRWVFEWRKEHGIKMRIEVKRVDVQGDKIRIDTVLHIDVGDKHHVTRTELHAKKVDGKWFSTELRIN	2.23
SEEHHIIHKFLEDFLRSWITGDEKSMKELLDPHAKVDIRVNGRDVHPHGWEFLEWYKRFFKNAQFRVHDIDVQGNKVHLITEVVVNGQKEEMHIHLQVVDGRAERVETRIH	1.9
SKISEFVKMLLEIEVHAHETGDWRHYQEMMDPHVKFELNIGNFHTLDHGRDRLIDWIEHHIKRADHLHVHIREVHVIGDKVSVRGELKTNVNGVDLEYEILQIIIVVDGRFKSIQHSYL	0.155
TEEDHELRLAHEELHRDLDTGDWESFMRYMDPRARVHYNGREFIGREFAVKFYLDVLNKYKGLTFRIHDIRIFDGVLFVRVKFHFDGQWLHSSEVALKVNGQWHNHHVSFI	0.611
DEDVEDSLRALRELTKSLITGDEDSFRHLADPHARFIWNGKEIHGWEEVVKVVSKILKHLRFDDIILRDIRIQGDKIEFVVTDLVTVGDKHEEVDSRVTIYKVNGRWLLHTIKIR	1.3
DEDERHMEKMWRDWVHARYTGDEHRLDELFDPDARMLIDGVDAVGREEVHRLLHKMLKRLGIKHIEHVRITHIEIQGDKIHIENEIRGIVGDKTTTVEVHLVIIKVDGQWRIRSVEEK	1.14
DDRKEMSEEASEIFLHLLATGDERTERKLLDPHVRLIIGDKHLHGREEFVRFKHEEMRDLGVTNVEVREKDVKVYDGKIELHGHFNVNGKWVEIHVIAEKFNGRWILKRVNFH	0.875
